According to FireProtDB (doi:10.1021/bi00493a013):
Where “and” joins values, the source holds several entries; their conditions need not be identical. Equal values may be shown once.

Settings: Rattus norvegicus, pH 7.2, 20 °C, CD, Potassium phosphate 20 mM, reversible: yes, whole UniProt chain shown

B1: Fatty acid-binding protein, brain wild type, P55051 (protein)
chain: MVDAFCATWKLTDSQNFDEYMKALGVGFATRQVGNVTKPTVIISQEGGKVVIRTQCTFKNTEISFQLGEEFEETSIDDRNCKSVIRLDGDKLIHVQKWDGKETNCVREIKDGKMVVTLTFGDVVAVRCYEKA
denaturant m value (DimethylUrea, NaCl 1 M): 1.81 kcal/mol/M | denaturant midpoint (higher = more stable) (DimethylUrea, NaCl 1 M): 5.36 M | unfolding free energy (DimethylUrea, NaCl 1 M): 9.71 kcal/mol | denaturant m value (GdnHCl): 4.21 kcal/mol/M | denaturant midpoint (higher = more stable) (GdnHCl): 1.33 M | unfolding free energy (GdnHCl): 5.58 kcal/mol | denaturant m value (GdnSCN): 14 kcal/mol/M | denaturant midpoint (higher = more stable) (GdnSCN): 0.73 M | unfolding free energy (GdnSCN): 10.2 kcal/mol | denaturant m value (Urea): 1.82 kcal/mol/M and 2.17 kcal/mol/M | denaturant midpoint (higher = more stable) (Urea): 5.43 M and 5.79 M | unfolding free energy (Urea): 9.91 kcal/mol and 12.6 kcal/mol
